From patent US20090111753A1, “Nogo-A Polypeptide Fragments, Variant Nogo Receptor-1 Polypeptides, and Uses Thereof” (Yale University, priority 2004, published 2009)

T1: AP-Nogo-66 (UniProt Q9NQC3 1055-1120)
T1 construct: domain: Nogo-66; construct described elsewhere (Fournier 2001); also called AP-Ng66; Ng66; not shown: alkaline phosphatase (AP); construct described elsewhere
T1 sequence (looked up): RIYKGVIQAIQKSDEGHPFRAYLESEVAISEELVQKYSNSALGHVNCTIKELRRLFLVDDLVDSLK

T2: AP fusion protein with the B4C fragment of Amino-Nogo-A fused directly to Nogo-66 (human, UniProt Q9NQC3 1055-1120)
T2 construct: domain: Nogo-66; also called AP-B4C66; AP-B4C-66; not shown: alkaline phosphatase (AP), vector pcAP6
T2 sequence: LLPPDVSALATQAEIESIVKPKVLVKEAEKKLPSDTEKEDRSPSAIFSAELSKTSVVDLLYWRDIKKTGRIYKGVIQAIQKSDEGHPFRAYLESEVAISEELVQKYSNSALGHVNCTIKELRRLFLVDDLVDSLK

T3: AP-fused Amino-Nogo fragment B4C (a.a. 950-1018) (human, UniProt Q9NQC3 950-1018)
T3 construct: also called AmNg B4C; AP-B4C; not shown: alkaline phosphatase (AP), vector pcAP6
T3 sequence: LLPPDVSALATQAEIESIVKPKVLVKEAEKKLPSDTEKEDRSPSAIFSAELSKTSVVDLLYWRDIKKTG


Assays:
AP-Nogo-66 = biological target: T1, AP-Nogo-66; experiment: AP-ligand binding, COS-7
[1] = biological target: T2, AP fusion protein with the B4C fragment …; experiment: AP-ligand binding, COS-7
[2] = biological target: T3, AP-fused Amino-Nogo fragment B4C (a.a. …); experiment: AP-ligand binding, COS-7
NgR ligands = experiment: Binding of alanine substituted NgR mutants to NgR ligands, summary categories; conditions: AP-Nogo66, AP-B4C, AP-B4C66, AP-Lingo-1, AP-OMgp and AP-MAG; compared to wild type NgR
Summary of the method: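 AP-fused ligands (Nogo66, B4C, B4C66, Lingo-1, OMgp, MAG) were assayed against 74 Ala-substitution mutants of human NgR1 targeting surface charged patches, glycosylation sites and predicted binding regions, plus the D259N variant. Outcomes were grouped into categories: binding lost for all ligands, retained for all, or ligand-selective.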

| Molecule | binding result (AP-Nogo-66) | binding result [1] | binding result [2] | ligand binding category of NgR mutant (Table II) (NgR ligands) |
| --- | --- | --- | --- | --- |
| human NgR1 alanine mutant 117, 119, 120, 139 (receptor) CPGACVCYNEPKVTTSCPQQGLQAVPVGIPAASQRIFLHGNRISHVPAASFRACRNLTILWLHSNVLARIDAAAFTGLALLEQLDLSDNAALAAVDPATFHGLGRLHTLHLDACGLQELGPGLFRGLAALQYLYLQDNALQALPDDTFRDLGNLTHLFLHGNRISSVPERAFRGLHSLDRLLLHQNRVAHVHPHAFRDLGRLMTLYLFANNLSALPTEALAPLRALQYLRLNDNPWVCDCRARPLWAWLQKFRGSSSEVPCSLPQRLAGRDLKRLAANDLQGCAVATGPYHPIWTGRATDEEPLGLPKCCQPDAADKASVLEPGRPASAGNALKGRVPPGDSPPGNGSGPRHINDSPFGTLPGSAEPPLTAVRPEGSEPPGFPTSGPRRRPGCSRKNRTRSHCRLGQAGSGGGGTGDSEGSGALPSLTCSLTPLGLALVLWTVLGPC | no binding | no binding | no binding | No binding |
| human NgR1 alanine mutant 182, 186, 210 (receptor) CPGACVCYNEPKVTTSCPQQGLQAVPVGIPAASQRIFLHGNRISHVPAASFRACRNLTILWLHSNVLARIDAAAFTGLALLEQLDLSDNAQLRSVDPATFHGLGRLHTLHLDRCGLQELGPGLFRGLAALQYLYLQDNALQALPDDTFRDLGNLTALFLAGNRISSVPERAFRGLHSLDRLLLAQNRVAHVHPHAFRDLGRLMTLYLFANNLSALPTEALAPLRALQYLRLNDNPWVCDCRARPLWAWLQKFRGSSSEVPCSLPQRLAGRDLKRLAANDLQGCAVATGPYHPIWTGRATDEEPLGLPKCCQPDAADKASVLEPGRPASAGNALKGRVPPGDSPPGNGSGPRHINDSPFGTLPGSAEPPLTAVRPEGSEPPGFPTSGPRRRPGCSRKNRTRSHCRLGQAGSGGGGTGDSEGSGALPSLTCSLTPLGLALVLWTVLGPC | no binding | no binding | no binding | No binding |
| human NgR1 alanine mutant 210, 232, 234 (receptor) CPGACVCYNEPKVTTSCPQQGLQAVPVGIPAASQRIFLHGNRISHVPAASFRACRNLTILWLHSNVLARIDAAAFTGLALLEQLDLSDNAQLRSVDPATFHGLGRLHTLHLDRCGLQELGPGLFRGLAALQYLYLQDNALQALPDDTFRDLGNLTHLFLHGNRISSVPERAFRGLHSLDRLLLAQNRVAHVHPHAFRDLGRLMTLALAANNLSALPTEALAPLRALQYLRLNDNPWVCDCRARPLWAWLQKFRGSSSEVPCSLPQRLAGRDLKRLAANDLQGCAVATGPYHPIWTGRATDEEPLGLPKCCQPDAADKASVLEPGRPASAGNALKGRVPPGDSPPGNGSGPRHINDSPFGTLPGSAEPPLTAVRPEGSEPPGFPTSGPRRRPGCSRKNRTRSHCRLGQAGSGGGGTGDSEGSGALPSLTCSLTPLGLALVLWTVLGPC | no binding | no binding | no binding | No binding |
| human NgR1 alanine mutant 95, 97, 117, 119, 120, 188, 189 (receptor) CPGACVCYNEPKVTTSCPQQGLQAVPVGIPAASQRIFLHGNRISHVPAASFRACRNLTILWLHSNVLAAIAAAAFTGLALLEQLDLSDNAALAAVDPATFHGLGRLHTLHLDRCGLQELGPGLFRGLAALQYLYLQDNALQALPDDTFRDLGNLTHLFLHGAAISSVPERAFRGLHSLDRLLLHQNRVAHVHPHAFRDLGRLMTLYLFANNLSALPTEALAPLRALQYLRLNDNPWVCDCRARPLWAWLQKFRGSSSEVPCSLPQRLAGRDLKRLAANDLQGCAVATGPYHPIWTGRATDEEPLGLPKCCQPDAADKASVLEPGRPASAGNALKGRVPPGDSPPGNGSGPRHINDSPFGTLPGSAEPPLTAVRPEGSEPPGFPTSGPRRRPGCSRKNRTRSHCRLGQAGSGGGGTGDSEGSGALPSLTCSLTPLGLALVLWTVLGPC | no binding | no binding | no binding | No binding |

The next lines start with the values.

| binding result (AP-Nogo-66) | binding result [1] | binding result [2] | ligand binding category of NgR mutant (Table II) (NgR ligands) | Molecule |
| --- | --- | --- | --- | --- |
| no binding | no binding | no binding | No binding | human NgR1 alanine mutant 114, 117, 163 (receptor) CPGACVCYNEPKVTTSCPQQGLQAVPVGIPAASQRIFLHGNRISHVPAASFRACRNLTILWLHSNVLARIDAAAFTGLALLEQLDLSANAALRSVDPATFHGLGRLHTLHLDRCGLQELGPGLFRGLAALQYLYLQANALQALPDDTFRDLGNLTHLFLHGNRISSVPERAFRGLHSLDRLLLHQNRVAHVHPHAFRDLGRLMTLYLFANNLSALPTEALAPLRALQYLRLNDNPWVCDCRARPLWAWLQKFRGSSSEVPCSLPQRLAGRDLKRLAANDLQGCAVATGPYHPIWTGRATDEEPLGLPKCCQPDAADKASVLEPGRPASAGNALKGRVPPGDSPPGNGSGPRHINDSPFGTLPGSAEPPLTAVRPEGSEPPGFPTSGPRRRPGCSRKNRTRSHCRLGQAGSGGGGTGDSEGSGALPSLTCSLTPLGLALVLWTVLGPC |
| no binding | no binding | no binding | No binding | human NgR1 alanine mutant 67, 68, 71 (receptor) CPGACVCYNEPKVTTSCPQQGLQAVPVGIPAASQRIFLHGAAISAVPAASFRACRNLTILWLHSNVLARIDAAAFTGLALLEQLDLSDNAQLRSVDPATFHGLGRLHTLHLDRCGLQELGPGLFRGLAALQYLYLQDNALQALPDDTFRDLGNLTHLFLHGNRISSVPERAFRGLHSLDRLLLHQNRVAHVHPHAFRDLGRLMTLYLFANNLSALPTEALAPLRALQYLRLNDNPWVCDCRARPLWAWLQKFRGSSSEVPCSLPQRLAGRDLKRLAANDLQGCAVATGPYHPIWTGRATDEEPLGLPKCCQPDAADKASVLEPGRPASAGNALKGRVPPGDSPPGNGSGPRHINDSPFGTLPGSAEPPLTAVRPEGSEPPGFPTSGPRRRPGCSRKNRTRSHCRLGQAGSGGGGTGDSEGSGALPSLTCSLTPLGLALVLWTVLGPC |
| no binding | no binding | no binding | No binding | human NgR1 alanine mutant 95, 97, 188, 189, 191, 192 (receptor) CPGACVCYNEPKVTTSCPQQGLQAVPVGIPAASQRIFLHGNRISHVPAASFRACRNLTILWLHSNVLAAIAAAAFTGLALLEQLDLSDNAQLRSVDPATFHGLGRLHTLHLDRCGLQELGPGLFRGLAALQYLYLQDNALQALPDDTFRDLGNLTHLFLHGAAIAAVPERAFRGLHSLDRLLLHQNRVAHVHPHAFRDLGRLMTLYLFANNLSALPTEALAPLRALQYLRLNDNPWVCDCRARPLWAWLQKFRGSSSEVPCSLPQRLAGRDLKRLAANDLQGCAVATGPYHPIWTGRATDEEPLGLPKCCQPDAADKASVLEPGRPASAGNALKGRVPPGDSPPGNGSGPRHINDSPFGTLPGSAEPPLTAVRPEGSEPPGFPTSGPRRRPGCSRKNRTRSHCRLGQAGSGGGGTGDSEGSGALPSLTCSLTPLGLALVLWTVLGPC |
| no binding | no binding | no binding | No binding | human NgR1 alanine mutant 202, 205, 227, 250, 277, 279 (receptor) CPGACVCYNEPKVTTSCPQQGLQAVPVGIPAASQRIFLHGNRISHVPAASFRACRNLTILWLHSNVLARIDAAAFTGLALLEQLDLSDNAQLRSVDPATFHGLGRLHTLHLDRCGLQELGPGLFRGLAALQYLYLQDNALQALPDDTFRDLGNLTHLFLHGNRISSVPERAFRGLASLARLLLHQNRVAHVHPHAFRDLGALMTLYLFANNLSALPTEALAPLAALQYLRLNDNPWVCDCRARPLWAWLQAFAGSSSEVPCSLPQRLAGRDLKRLAANDLQGCAVATGPYHPIWTGRATDEEPLGLPKCCQPDAADKASVLEPGRPASAGNALKGRVPPGDSPPGNGSGPRHINDSPFGTLPGSAEPPLTAVRPEGSEPPGFPTSGPRRRPGCSRKNRTRSHCRLGQAGSGGGGTGDSEGSGALPSLTCSLTPLGLALVLWTVLGPC |
| no binding | no binding | no binding | No binding | human NgR1 alanine mutant 111, 113, 114 (receptor) CPGACVCYNEPKVTTSCPQQGLQAVPVGIPAASQRIFLHGNRISHVPAASFRACRNLTILWLHSNVLARIDAAAFTGLALLEQLALAANAQLRSVDPATFHGLGRLHTLHLDRCGLQELGPGLFRGLAALQYLYLQDNALQALPDDTFRDLGNLTHLFLHGNRISSVPERAFRGLHSLDRLLLHQNRVAHVHPHAFRDLGRLMTLYLFANNLSALPTEALAPLRALQYLRLNDNPWVCDCRARPLWAWLQKFRGSSSEVPCSLPQRLAGRDLKRLAANDLQGCAVATGPYHPIWTGRATDEEPLGLPKCCQPDAADKASVLEPGRPASAGNALKGRVPPGDSPPGNGSGPRHINDSPFGTLPGSAEPPLTAVRPEGSEPPGFPTSGPRRRPGCSRKNRTRSHCRLGQAGSGGGGTGDSEGSGALPSLTCSLTPLGLALVLWTVLGPC |
